Experimental data: the supplement of paper PMC12636428

Tested on: Saccharomyces cerevisiae
Experiment: transcriptional activation domain activity (GFP:mCherry ratio, weighted mean of sorted bins, harmonized to initial dataset scale) (arbitrary fluorescence ratio units); higher = stronger transcriptional activation
Conditions: beta-estradiol 1 µM; induction time 4 h
Method in brief: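 Barcoded tiles were sequenced after cells were sorted into 8 bins by GFP:mCherry ratio. Before sorting, cultures had been diluted 1:5 into SC with 1 uM beta-estradiol and held for 4 hours at 30 °C. The tiles were fused to an estradiol-inducible synthetic transcription factor and integrated at URA3 in yeast diploids carrying a GFP reporter. Activation activity is the read-weighted mean of bin median fluorescence, averaged over barcodes and linearly mapped onto the initial dataset scale, and tiles under 50 reads were left out.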

Sequence | transcriptional activation domain activity
APPPPPPPPPPPPPPPSSSSAPSPSSTSAPPPPPPPPPPPPPPPGGGGPPPPP | 32900
SEEETSRSRSSKKHAISSGSDSDRDSRKVRKSRHSSSDEERYQKSHKSSSRRR | 52400
LHRYPIIRRGVALQTGKGKRKRMYQLIVVGNGDGLVGYGEGKNEDMGMAASKS | 28500
RSSRRDRDEDENERHSRHRRENRRRSHSSDERHGDARRRDEKSRHHRSSRHER | 17900
MFVHWAAVFCLFFFCLAIIHPYLPVAFFFCSIYYKPFFLRLPRFLFGFWFFFS | 47700
FPHNETLPALGQDGINEDNLNETIDNMLIFDFLDDGSENNQVKYSRIIPPDIR | 89000
MWVLGRSWAVLSTFFLSLLRLFFCLLFLLGLDFWSGLLPFLCFFLLCSYCFSL | 56400
AAPSKPASPTKAAAPVSKPVTPAPQKAAPVQQQSKPATPAPQQKAATPAPKTA | 29500
LECVRFAIMTHTVDLLQKVLWSQVDHILSRLPSIRTVKFRFFMDSSLWKKAAI | 41900
LGAIIYIYLCCHGSLTMVDLCTLLALNILNNVDGQCTRILCWWVSFAWCMYPG | 58800
SKSESTHSSAKKADSGKRSGRSKPATSDGGPKGFDSKPSGEKSKKESSRSTKE | 36600
NFFSCLSFLFLFIFLFIFLLFHFPYLFSFQFCLLPIFSHFSIDHQKPYPFPSF | 37700
WTCVRRPGGLGGFFFGTWTGWQIWVGLLVFWVGGCTFGLLLMNRFLLLTGVYK | 42000
PFVTRCQRNIRIACLICFFFTYSLFHLAFYVGLERRNVPVPLGNHFWSVYGFA | 38200
HTFVRICKLAGDLIDWVGMCVDCGKCSATQGRDCLDVIMRLSIMAVHGLRFVG | 51400
FLLAIRVSNMDLLMIGIMLTLFVRNVIVSTDYIRRGRVRYKALFYVLLCKYYR | 49600
MSLFFLLFPHVFAFILFLLSSFYSLSPIHSVFYPSFSLFPLSSLFYLTFPFSL | 59400
FLLDIFLLLVPSFPFSYTPFLVTSLFLVLCDIDVFLRFIYVHIYLVTLICTFM | 30400
FAALRRGLLLIMLFALWDVRLLSELSFTNFVFPPAMFRVIAAQSPSLRAVKVS | 45300
VACEEEMRKLDEEDGRAGLGKGGEGEADREFKRHLRRMRASEVRIVRNVGDLL | 29000
TSSSEESSNKGQRQLTVSIDSAAHHDNSTIPLDFMPRDALHGFDWSEEDDMSD | 39300

Sequence | transcriptional activation domain activity
VLFSQRRRWINSTVHNLLELVILPELCGFCCFSMRFFVFIDLLGTILTYLVVV | 61100
ALGLLFVCEQIELYPQTARIFGLRLIYVILLLHLFLPFTDSLPWLKTLFSILT | 54600
LWELLLNILKENGAKEKCILPCIVDFLPKNLVLVHCIHAYLHFRILVGLQCMT | 33700
EREEEEEEEEEEEEVVVVAKAKANEREREEEAEEAEEVEEVVAKSRKAKGKAK | 16600
FTPWLSSTFFLFFAVIRWGAYCLVPLLLPSFPSIPLSLYPIRFPSTHVLVLIV | 61000
LIKKVKNEKQMYPILVCVLRLYDYVTHIMLIECQCEGIQSAFVSNQLSVKDTG | 52700
EMRHVILIVFIGMVGCWISQWVFWVGFLKLYSGQGYCPPRLGTLALNWILFSV | 43200
MTHALNIVTYLYRQHLLEDEHFLDWILRNLGPCPLERLLVWLLLVSLYWRDLI | 49800
MYYLYLSFCFLIVFFFFFFPLYCCCRLLFFSSSFVLFLSVLIILIPTFHAFFP | 67800
SVYLHALKKVITTWKGEVLPIILARKIQWTEWEIKDLEYEITHFYVKTFFMTI | 47900
ALGLPARPVSHHILIAIPSGLPLRTHELFMQLLFEHLHLSAVMLVDRSIAQTY | 55300
YCGDDMHSLRIVVAVLALLTTLKSIHAFAIVWVQSIVHFGDLQGAILLNYTAW | 76900
ISSISSIFPIFFPYFPSIYLIFFFIFFLPFFPSLPILLFLLFLLFLLFTLPLC | 43700
PSASLSFVSFFFFFLFLPLTFSSSYFFFLPFSSFPLFSSLSSTHIWSFLLSPL | 39800
MSLYICNLVFSFFFFLFSFFLFLTLIFSSTRADCLWLLQERWYFVLLWNTLPF | 45800
QRMGSMVQRVQSTCRKCRGEGKILLEKDRCKKCAGRGIVKASKKLEVHVDKGM | 20000
MRLFRECALFDTFMLYLNGDCMWVCLCLCFYLDFTVLGWFIIYGLVYCRVDDR | 56000
LPTNPTTHPLLFSAIHFFIYNVGDLLGRYICSFSCFIIWSQPMLLGLSLARVV | 77600
MHSDMYLHPTLLSFLSVQFSMGFLFFLCRRYLYFSEWLLVVLCVFVSRFIGFI | 38400
MPSITLAWPDRAYFYSLLVVSLLSSKLLHVFSHLTAIPIFLFLLYFPTFLFLD | 72500
MMLPLVQGWGSTDGFFIFIFIFFIFAFLFNLSIYRSFFFLPFLFFYMEVLLRL | 73300

Sequence | transcriptional activation domain activity
ILLIVRFIWRSPYLISTGCGSLINDFSYVNIFLYSKIFCERFFIFLSLVIFIK | 66800
LAILMDGLNRILLTHKDDIGIVARVMLAYMTAATRFKRLFISGGGYMLFMPAV | 59800
AATSEATTVFWHDPSGFVDRLLGLTRFWFFTLLRYSYRVYFLASRERSRKPLS | 66100
LFTSIYYIIILSRSCLFFLFSLPLFQDALFLFVDSVQLYMWGILLFILSSLFF | 42900
PSGSPLTPSSGKGGRSASLGDAESNKTGEPYGPHSGKAYFEVCVNVGKHAIRL | 37500
KEVKEGEEGEKPKRGRKRKEAPAENGEEKEEKEPAAKKAKPASKAAPGSKPAS | 12700
KLIYVRILGYLLHHMPSEAGLQQLVTEIVSFRTEEAFLKLGLLYFEHAIRLFR | 36800
TYSDVDGEILWPPPVMNVMMIERCGAVCCRVSVGWVLLRRWAQVKRKWETIVL | 41700
MPPRYIRYADRAVIENLSWYYWVFNPIMIGLYGPVRTIIDIYFRYFYNCILLF | 40100
FHFHLHSSISFPFPSLSLPFPFFPTSSSSSSPFLLHLFPFPSLFFPLLLLLLF | 56400
VPLLDSNFISLNSNPLLYIQNQNPNSNSSVKVSRSQTFEPSKELIDLVFPWLS | 122000
MWGRWVGWSLIFLELYLDHLILQFIPPTRFIVTLFFFFSFLFIWYFCLLSLSL | 28800
WRLYMAFRTLKGKLLPCLIEANGLDLFISTFAAIVERVAEVSNLRLTSKLYQA | 44900
ANRCSFFALEFSVGISWSTVGADFYVYYPTNTSKRLTFFMTWAGLWISLIFVN | 47200
MELFFRLFFWLMSWLLQLTHYFNTFTVLLYIHSLFSGVWFCKVLGFSFFFLYH | 51600
DNDYNLDDTNNDNTNSMQSILEDFVSSEEALKFMPDAGRDARRYSEVVTSSFP | 89300
EPAAEGAAGADKPAEEAKPAEDKPAETKPEETAEGAKTEETPAPAESAAAPAA | 37800
TMEMAWLDMGRFFYFLFFYFLFFLLSSFFVFFYSFIYFFFSLLLFFFILWLEM | 45900
GRMIRMWKRWSVMAHGMNRLKHYANYLPRLIVLLNKTLPQDVADIIKFNMLVC | 39100
QTTDLVQWLAMPCNLPWVVYVLDRVRNLLRFVIVLSEVEITEDLKRRIMAIYT | 77400
MMRSAANMGLISQPSNLLLVVQPCPPLLLCVLFPPPLSSYCLLLSLSLLLFFF | 38500

Sequence | transcriptional activation domain activity
RSSRSKRRSRSPHDSSHKRRSRKEGRRPPSRERDEEDGEKRRHRSSRSHRRRR | 11400
YCAINCGGIDGLSLFMKIQWIANLDYLDIELLFGGIYYYFVCLLLVLLLLLWL | 42700
QKRGLETHHRRSGFWAALRRAEKGKSWVFLFFFFLFFPFFSFFYFFLLFLFLF | 21800
EKKEKSSRKSTSRAAANGTAEKASKGEASSKKSRGASRPRSPKKTRSPAGRPA | 24500
EAEAEAAPEAEAAKPKNRGGRPKKAVLPAAAAPAPKEKEEPKPKATAGRKRKA | 33400
CMLRFVIWLCSKCVPYRSGVWEEFKFLLDHPRRCFTLLFPSSANWWLFWVLIL | 59700
EKVKEEEEVKYKGKEQEEVKDKGKEQEQEQEQEQEQEQEQEAPAPPRTTTSTA | 40900
MCARSLFCGYIFFLVLYLLAWLGVFPCPFTLFLLSFLFPIFFFLLCWRLAFAC | 45800
KHERDDEKERKHRKHDKPSKDKDGEDDDGEGRRHKKHRKHKERGSDDEDEHRK | 22500
MHYRSAILCHSFILYCLVVVLGVFFKVILVLIYNRVCVPLIVLCLFSYSLSLV | 59100
LADNKFSYLPPTLEELMEEQDCNNGRSFKNFMFSNDTGIDGSAGTDDDYTKVL | 60000
PAYKLLVAAIWSLEIVDQAFIGHCVYYYTISNYMSPQVLLFGDVIWTLIIQLV | 43000
KRNKPNACGGCGAESDENGGALMMCSRCKDRKYCGAECQKTHWKVHKKVCEVA | 58500
MLVSVANLHYFFFPLSFGVCVLRYSSLAMCFFCIYCCLVTMLCILLLLLWSTI | 39800
RAITPMRVWMEVHDRAAFKLVWSEVFRLVSVLTDCPLRFKRLHYGGTMLGINT | 45000
KVKAEGEASDGGAPAPDAEGGAADDSAAGKKAARVRKPKAPRAPRPAGEDPVG | 34200
QGEEGEKKAGGRGRGGGRKKAEKHMAEGSGDEISPKKSGKGGEAGGSKAAAGA | 33700
ISTAYFSNECGLVDRLITLAFLALKSKTDMSMVAYHSYCAIIEASLHSRGIWN | 57300
LCFVFVLNIQAVLAVLWVIATKWIVIGRRRDGQYAWDSSSYCQRWQLHLVLSR | 71600
AKSAQRRADEPGVMSLGELAVLWVKRARHLGQSLLRVVLVSYAVDLPANCVAL | 30100
